Assay results published in patent publication US20230105029A1 (CHIA TAI TIANQING PHARMACEUTICAL GROUP, published 2023).
Residue numbers refer to the chain shown, from its start. Read-outs that look alike come from different tables or passages of the source. One block for each binder: values may come before it.

Experiments:
[1] = target: T1, recombinant human IL4Rα-his protein (in house made) (human, UniProt P24394 26-232, limits assumed); experiment: SPR (Biacore), antibody captured, IL4Rα-his flowed
T1 construct: also called Human IL4Ra-his

[2] = target: T1, recombinant human IL4Rα-his protein (in …); experiment: SPR (Biacore), antibody captured, IL4Rα-his flowed; remark: listed apart in the source

Dissociation % [2]: -1.54%
End (RU) [2]: 63.9 RU
Kd [2]: < 0.0304 nM
Start (RU) [2]: 64.9 RU
koff [2]: < 1e-05 s⁻¹
kon [2]: 329000 M⁻¹ s⁻¹
B12: huC2C1A1A1-V10 (antibody, human IgG4 S228P, kappa, V domains shown)
VH: EVQLVESGGGLVQPGGSLRLSCAASGFTFSTYGMSWVRQAPGKGLVLVATINSNGGSTSYPDSVKGRFTISRDNAKNTLYLQMNSLRAEDTAVYYCARFFRFRNAMDYWGQGTLVTVSS
VL: DIQMTQSPSSLSASVGQRVTITCRTSENIYSYLAWYQQKQGKPPRFLIYNAKTLAEGVPSRFSGSGSGTEFTLTITSLQAEDFGVYYCQHYYGPPTWTFGPGTKLEIKR
notes: Humanized, human IgG4/kappa

Dissociation % [2]: -0.59%
End (RU) [2]: 50.6 RU
Kd [2]: < 0.0261 nM
Start (RU) [2]: 50.9 RU
koff [2]: < 1e-05 s⁻¹
kon [2]: 383000 M⁻¹ s⁻¹
B13: huC2C1A1A1-V6 (antibody, human IgG4 S228P, kappa, V domains shown)
VH: B12 VH with A40S, G42D, G44R, V46E, L47W, A49S, N84R
VL: B12 VL
notes: Humanized, human IgG4/kappa

Dissociation % [2]: -1.88%
End (RU) [2]: 52.1 RU
Kd [2]: 0.047 nM
Start (RU) [2]: 53.1 RU
koff [2]: 1.42e-05 s⁻¹
kon [2]: 302000 M⁻¹ s⁻¹
B14: huC2C1A1A1-V12 (antibody, human IgG4 S228P, kappa, V domains shown)
VH: B12 VH
VL: DIQMTQSPSSLSASVGDRVTITCRTSENIYSYLAWYQQKPGKAPKFLIYNAKTLAEGVPSRFSGSGSGTDFTLTISSLQPEDFATYYCQHYYGPPTWTFGQGTKVEIKR
notes: Humanized, human IgG4/kappa

Dissociation % [2]: -1.23%
End (RU) [2]: 64.4 RU
Kd [2]: < 0.036 nM
Start (RU) [2]: 65.2 RU
koff [2]: < 1e-05 s⁻¹
kon [2]: 278000 M⁻¹ s⁻¹
B15: huC2C1A1A1-V8 (antibody, human IgG4 S228P, kappa, V domains shown)
VH: B12 VH with A40S, G42D, G44R, V46E, L47W, A49S, N84R
VL: B14 VL
notes: Humanized, human IgG4/kappa

Dissociation % [2]: -0.92%
End (RU) [2]: 53.7 RU
Kd [2]: < 0.0303 nM
Start (RU) [2]: 54.2 RU
koff [2]: < 1e-05 s⁻¹
kon [2]: 330000 M⁻¹ s⁻¹
B17: huC2C1A1A1-V11 (antibody, human IgG4, V domains shown)
VH: B12 VH
VL: B14 VL with I48V
notes: Humanized, human IgG4/kappa

Dissociation % [2]: -2.28%
End (RU) [2]: 64.3 RU
Kd [2]: 0.0283 nM
Start (RU) [2]: 65.8 RU
koff [2]: 7.5e-05 s⁻¹
kon [2]: 2.65e+06 M⁻¹ s⁻¹
B18: huC2C1A1A1-V5 (antibody, human IgG4 S228P, kappa, V domains shown)
VH: B12 VH with A40S, G42D, G44R, V46E, L47W, A49S, N84R
VL: B14 VL with F46L
notes: Humanized, human IgG4/kappa

Dissociation % [2]: -0.66%
End (RU) [2]: 60.1 RU
Kd [2]: < 0.038 nM
Start (RU) [2]: 60.5 RU
koff [2]: < 1e-05 s⁻¹
kon [2]: 263000 M⁻¹ s⁻¹
B19: huC2C1A1A1-V7 (antibody, human IgG4, V domains shown)
VH: B12 VH with A40S, G42D, G44R, V46E, L47W, A49S, N84R
VL: B14 VL with I48V
notes: Humanized, human IgG4/kappa

Dissociation % [2]: 0.82%
End (RU) [2]: 36.7 RU
Kd [2]: < 0.0838 nM
Start (RU) [2]: 36.4 RU
koff [2]: < 1e-05 s⁻¹
kon [2]: 119000 M⁻¹ s⁻¹
B20: huC2C1A1A1-V13 (antibody, human IgG4 S228P, kappa, V domains shown)
VH: B12 VH with L47W
VL: B14 VL with F46L
notes: Humanized, human IgG4/kappa

Dissociation % [2]: -0.62%
End (RU) [2]: 48.3 RU
Kd [2]: < 0.0389 nM
Start (RU) [2]: 48.6 RU
koff [2]: < 1e-05 s⁻¹
kon [2]: 257000 M⁻¹ s⁻¹
B21: huC2C1A1A1-V3 (antibody, human IgG4, V domains shown)
VH: B12 VH with L47W, A49S
VL: B14 VL with I48V
notes: Humanized, human IgG4/kappa

Dissociation % [2]: -0.24%
End (RU) [2]: 41.1 RU
Kd [2]: < 0.0507 nM
Start (RU) [2]: 41.2 RU
koff [2]: < 1e-05 s⁻¹
kon [2]: 197000 M⁻¹ s⁻¹
B23: huC2C1A1A1-V9 (antibody, human IgG4 S228P, kappa, V domains shown)
VH: B12 VH
VL: B14 VL with F46L
notes: Humanized, human IgG4/kappa

Dissociation % [2]: -0.42%
End (RU) [2]: 47.1 RU
Kd [2]: < 0.0338 nM
Start (RU) [2]: 47.3 RU
koff [2]: < 1e-05 s⁻¹
kon [2]: 296000 M⁻¹ s⁻¹
B24: huC2C1A1A1-V16 (antibody, human IgG4 S228P, kappa, V domains shown)
VH: B12 VH with L47W
VL: B14 VL
notes: Humanized, human IgG4/kappa

The next lines start with the binder.

B1: huB8G11F2B7G5E8-V1 (antibody, human IgG4 S228P, kappa, V domains shown)
VH: EVQLVQSGAEVKKPGATVKISCKASGFNIKDTYMHWVKQAPGKGLEWVGRIDPTNGYTIYASKFQGKATITADTSSNTAYMELSSLRSEDTAVYHCVSRRPWFAYWGQGTLVTVSS
VL: DIVMTQTPLSLSVTPGQPASISCRSSQSIVHSNGNTYLEWYLQKPGQSPQLLIYKVTNRFSGVPDRFSGSGSGTDFTLKISRVEAEDVGVYYCFQGSHVPYTFGQGTKLEIKR
notes: Humanized, human IgG4/kappa; also called huBSG11F2B7G5E8-V1
Kd [1]: 3.73 nM
koff [1]: 0.00208 s⁻¹
kon [1]: 557000 M⁻¹ s⁻¹

B2: huB8G11F2B7G5E8-V13 (antibody, human IgG4 S228P, kappa, V domains shown)
VH: QVQLQQSGAELVKPGASVKLSCTASGFNIKDTYMHWVKQRPEQGLEWVGRIDPTNGYTIYASKFQGKATITADTSSNTAYMQLSSLTSEDTAVYHCVSRRPWFAYWGQGTTLTVSS
VL: B1 VL
notes: Humanized, human IgG4/kappa; also called huBSG11F2B7G5E8-V13
Kd [1]: 3.87 nM
koff [1]: 0.0012 s⁻¹
kon [1]: 310000 M⁻¹ s⁻¹

B3: huB8G11F2B7G5E8-V11 (antibody, human IgG4 S228P, kappa, V domains shown)
VH: B1 VH with A24V, K38Q, V48M, R50L, S62E, K67R, A68V, S76T, N77D, H95Y
VL: B1 VL
notes: Humanized, human IgG4/kappa; also called huBSG11F2B7G5E8-V11
Kd [1]: 14.9 nM

B4: huB8G11F2B7G5E8-V5 (antibody, human IgG4 S228P, kappa, V domains shown)
VH: B1 VH with K67R
VL: B1 VL
notes: Humanized, human IgG4/kappa; also called huBSG11F2B7G5E8-V5
Kd [1]: 4.13 nM
koff [1]: 0.00241 s⁻¹
kon [1]: 584000 M⁻¹ s⁻¹

B5: huB8G11F2B7G5E8-V10 (antibody, human IgG4 S228P, kappa, V domains shown)
VH: B1 VH with K67R, A68V, S76T
VL: B1 VL
notes: Humanized, human IgG4/kappa; also called huBSG11F2B7G5E8-V10
Kd [1]: 4.79 nM
koff [1]: 0.0028 s⁻¹
kon [1]: 585000 M⁻¹ s⁻¹

B6: huB8G11F2B7G5E8-V9 (antibody, human IgG4 S228P, kappa, V domains shown)
VH: B1 VH with H95Y
VL: B1 VL
notes: Humanized, human IgG4/kappa; also called huBSG11F2B7G5E8-V9
Kd [1]: 5.32 nM
koff [1]: 0.00331 s⁻¹
kon [1]: 621000 M⁻¹ s⁻¹

B7: huB8G11F2B7G5E8-V3 (antibody, human IgG4 S228P, kappa, V domains shown)
VH: B1 VH with K38Q
VL: B1 VL
notes: Humanized, human IgG4/kappa; also called huBSG11F2B7G5E8-V3
Kd [1]: 3.57 nM
koff [1]: 0.00199 s⁻¹
kon [1]: 558000 M⁻¹ s⁻¹

B8: huB8G11F2B7G5E8-V7 (antibody, human IgG4 S228P, kappa, V domains shown)
VH: B1 VH with S76T
VL: B1 VL
notes: Humanized, human IgG4/kappa; also called huBSG11F2B7G5E8-V7
Kd [1]: 3.75 nM
koff [1]: 0.00222 s⁻¹
kon [1]: 592000 M⁻¹ s⁻¹

B9: huB8G11F2B7G5E8-V6 (antibody, human IgG4 S228P, kappa, V domains shown)
VH: B1 VH with A68V
VL: B1 VL
notes: Humanized, human IgG4/kappa; also called huBSG11F2B7G5E8-V6
Kd [1]: 3.95 nM
koff [1]: 0.00219 s⁻¹
kon [1]: 554000 M⁻¹ s⁻¹

B10: huB8G11F2B7G5E8-V8 (antibody, human IgG4 S228P, kappa, V domains shown)
VH: B1 VH with N77D
VL: B1 VL
notes: Humanized, human IgG4/kappa; also called huBSG11F2B7G5E8-V8
Kd [1]: 4.89 nM
koff [1]: 0.00283 s⁻¹
kon [1]: 578000 M⁻¹ s⁻¹

B11: huC2C1A1A1-V4 (antibody, human IgG4 S228P, kappa, V domains shown)
VH: B12 VH with L47W, A49S
VL: B14 VL
notes: Humanized, human IgG4/kappa
Dissociation % [2]: 0.2%
End (RU) [2]: 49.6 RU
Kd [2]: < 0.022 nM
Start (RU) [2]: 49.5 RU
koff [2]: < 1e-05 s⁻¹
kon [2]: 455000 M⁻¹ s⁻¹

B16: huC2C1A1A1-V2 (antibody, human IgG4 S228P, kappa, V domains shown)
VH: B12 VH with L47W, A49S
VL: B12 VL
notes: Humanized, human IgG4/kappa
Dissociation % [2]: -0.2%
End (RU) [2]: 50.3 RU
Kd [2]: < 0.0442 nM
Start (RU) [2]: 50.4 RU
koff [2]: < 1e-05 s⁻¹
kon [2]: 226000 M⁻¹ s⁻¹

B22: huC2C1A1A1-V1 (antibody, human IgG4 S228P, kappa, V domains shown)
VH: B12 VH with L47W, A49S
VL: B14 VL with F46L
notes: Humanized, human IgG4/kappa
Dissociation % [2]: 0.23%
End (RU) [2]: 44 RU
Kd [2]: < 0.0773 nM
Start (RU) [2]: 43.9 RU
koff [2]: < 1e-05 s⁻¹
kon [2]: 129000 M⁻¹ s⁻¹
